{"source": "the supplement of paper PMC9112550", "about": "“Optimization of the antimicrobial peptide Bac7 by deep mutational scanning” (BMC Biology, 2022);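 also: peptides expressed intracellularly from a pBAD plasmid library in pooled LB shake-flask culture, induced with 0.3% L-arabinose, DNA abundance read by NGS, three biological replicates, DESeq2 with apeglm shrinkage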"}
{"tested_on": "Escherichia coli TOP10", "assay": "shrunken log2 fold change of peptide-encoding DNA abundance (4.5 h post-induction vs induction); higher = less antimicrobial activity (less host growth inhibition)", "conditions": "time post-induction: 4.5 h; library: site-saturation at positions 5, 18, 19, 20"}
{"sequence": "RRIRRRPPRLPRPRPRPALCPRP", "shrunken log2 fold change": 0.334}
{"sequence": "RRIRQRPPRLPRPRPRPQVTPRP", "shrunken log2 fold change": -0.00931}
{"sequence": "RRIRCRPPRLPRPRPRPEIKPRP", "shrunken log2 fold change": 0.0171}
{"sequence": "RRIRWRPPRLPRPRPRPPKPPRP", "shrunken log2 fold change": 0.648}
{"sequence": "RRIRTRPPRLPRPRPRPWVYPRP", "shrunken log2 fold change": -0.294}
{"sequence": "RRIRGRPPRLPRPRPRPYISPRP", "shrunken log2 fold change": -0.325}
{"sequence": "RRIRYRPPRLPRPRPRPYMWPRP", "shrunken log2 fold change": -0.43}
{"sequence": "RRIRWRPPRLPRPRPRPVACPRP", "shrunken log2 fold change": -0.052}
{"sequence": "RRIRDRPPRLPRPRPRPRECPRP", "shrunken log2 fold change": 0.0105}
{"sequence": "RRIRIRPPRLPRPRPRPIASPRP", "shrunken log2 fold change": -0.567}
{"sequence": "RRIRPRPPRLPRPRPRPNNDPRP", "shrunken log2 fold change": -0.544}
{"sequence": "RRIRFRPPRLPRPRPRPVKEPRP", "shrunken log2 fold change": -0.0554}
{"sequence": "RRIRARPPRLPRPRPRPVDMPRP", "shrunken log2 fold change": -0.109}
{"sequence": "RRIRMRPPRLPRPRPRPTVGPRP", "shrunken log2 fold change": 0.146}
{"sequence": "RRIRWRPPRLPRPRPRPKQFPRP", "shrunken log2 fold change": 0.207}
{"sequence": "RRIRMRPPRLPRPRPRPRQDPRP", "shrunken log2 fold change": 0.271}
{"sequence": "RRIRQRPPRLPRPRPRPVEIPRP", "shrunken log2 fold change": -0.0298}
{"sequence": "RRIRHRPPRLPRPRPRPKRSPRP", "shrunken log2 fold change": 0.0325}
{"sequence": "RRIRDRPPRLPRPRPRPQLHPRP", "shrunken log2 fold change": 0.267}
{"sequence": "RRIRMRPPRLPRPRPRPKQKPRP", "shrunken log2 fold change": 0.0402}
{"sequence": "RRIRRRPPRLPRPRPRPYHQPRP", "shrunken log2 fold change": -0.0224}
{"sequence": "RRIRKRPPRLPRPRPRPHSYPRP", "shrunken log2 fold change": 0.0421}
{"sequence": "RRIRFRPPRLPRPRPRPKPNPRP", "shrunken log2 fold change": 0.545}
{"sequence": "RRIRYRPPRLPRPRPRPEWLPRP", "shrunken log2 fold change": 0.00963}
{"sequence": "RRIRQRPPRLPRPRPRPHWMPRP", "shrunken log2 fold change": -0.0751}
{"sequence": "RRIRIRPPRLPRPRPRPMSTPRP", "shrunken log2 fold change": -0.211}
{"sequence": "RRIRKRPPRLPRPRPRPWNKPRP", "shrunken log2 fold change": -0.129}
{"sequence": "RRIRGRPPRLPRPRPRPCVDPRP", "shrunken log2 fold change": 1.17}
{"sequence": "RRIRTRPPRLPRPRPRPRAYPRP", "shrunken log2 fold change": -0.339}
{"sequence": "RRIRNRPPRLPRPRPRPNTRPRP", "shrunken log2 fold change": -0.115}
{"sequence": "RRIRCRPPRLPRPRPRPDPCPRP", "shrunken log2 fold change": -0.039}
{"sequence": "RRIRHRPPRLPRPRPRPAGYPRP", "shrunken log2 fold change": -0.0739}
{"sequence": "RRIRCRPPRLPRPRPRPETRPRP", "shrunken log2 fold change": 0.209}
{"sequence": "RRIRVRPPRLPRPRPRPTYPPRP", "shrunken log2 fold change": -0.194}
{"sequence": "RRIRYRPPRLPRPRPRPRYWPRP", "shrunken log2 fold change": -0.317}
{"sequence": "RRIRFRPPRLPRPRPRPGYSPRP", "shrunken log2 fold change": -0.934}
{"sequence": "RRIRYRPPRLPRPRPRPDDSPRP", "shrunken log2 fold change": 0.00262}
{"sequence": "RRIRRRPPRLPRPRPRPLSHPRP", "shrunken log2 fold change": 0.0117}
{"sequence": "RRIRPRPPRLPRPRPRPGWQPRP", "shrunken log2 fold change": 0.0481}
{"sequence": "RRIRMRPPRLPRPRPRPAARPRP", "shrunken log2 fold change": 0.975}
{"sequence": "RRIRFRPPRLPRPRPRPNIPPRP", "shrunken log2 fold change": -0.67}
{"sequence": "RRIRCRPPRLPRPRPRPQQGPRP", "shrunken log2 fold change": 0.188}
{"sequence": "RRIRHRPPRLPRPRPRPSHNPRP", "shrunken log2 fold change": -0.433}
{"sequence": "RRIRYRPPRLPRPRPRPETYPRP", "shrunken log2 fold change": -0.372}
{"sequence": "RRIRFRPPRLPRPRPRPCWVPRP", "shrunken log2 fold change": -0.331}
{"sequence": "RRIRPRPPRLPRPRPRPWQMPRP", "shrunken log2 fold change": 0.0571}
{"sequence": "RRIRLRPPRLPRPRPRPIIGPRP", "shrunken log2 fold change": -0.0425}
{"sequence": "RRIRQRPPRLPRPRPRPRRAPRP", "shrunken log2 fold change": 0.79}
{"sequence": "RRIRSRPPRLPRPRPRPHPKPRP", "shrunken log2 fold change": 0.12}
{"sequence": "RRIRWRPPRLPRPRPRPKARPRP", "shrunken log2 fold change": 0.836}
{"sequence": "RRIRKRPPRLPRPRPRPDQYPRP", "shrunken log2 fold change": 0.0833}
{"sequence": "RRIRFRPPRLPRPRPRPGRQPRP", "shrunken log2 fold change": 0.179}
{"sequence": "RRIRARPPRLPRPRPRPELFPRP", "shrunken log2 fold change": 0.7}
{"sequence": "RRIRRRPPRLPRPRPRPIHMPRP", "shrunken log2 fold change": -0.206}
{"sequence": "RRIRMRPPRLPRPRPRPVSMPRP", "shrunken log2 fold change": 0.382}
{"sequence": "RRIRYRPPRLPRPRPRPKHFPRP", "shrunken log2 fold change": -0.327}
{"sequence": "RRIRVRPPRLPRPRPRPRATPRP", "shrunken log2 fold change": 0.114}
{"sequence": "RRIRCRPPRLPRPRPRPKCSPRP", "shrunken log2 fold change": 0.0495}
{"sequence": "RRIRQRPPRLPRPRPRPMMIPRP", "shrunken log2 fold change": -0.0862}
{"sequence": "RRIRRRPPRLPRPRPRPWTEPRP", "shrunken log2 fold change": 0.116}
{"sequence": "RRIRSRPPRLPRPRPRPFRYPRP", "shrunken log2 fold change": -0.822}
{"sequence": "RRIRVRPPRLPRPRPRPPTKPRP", "shrunken log2 fold change": 0.417}
{"sequence": "RRIRFRPPRLPRPRPRPPFVPRP", "shrunken log2 fold change": -0.0145}
{"sequence": "RRIRCRPPRLPRPRPRPKVHPRP", "shrunken log2 fold change": -0.0287}
{"sequence": "RRIRTRPPRLPRPRPRPYQMPRP", "shrunken log2 fold change": 0.0528}
{"sequence": "RRIRDRPPRLPRPRPRPNLSPRP", "shrunken log2 fold change": -0.115}
{"sequence": "RRIRLRPPRLPRPRPRPNISPRP", "shrunken log2 fold change": -0.373}
{"sequence": "RRIRERPPRLPRPRPRPTINPRP", "shrunken log2 fold change": -0.399}
{"sequence": "RRIRGRPPRLPRPRPRPDNSPRP", "shrunken log2 fold change": 0.0661}
{"sequence": "RRIRHRPPRLPRPRPRPFDQPRP", "shrunken log2 fold change": -0.0783}
{"sequence": "RRIRDRPPRLPRPRPRPLCNPRP", "shrunken log2 fold change": -0.00406}
{"sequence": "RRIRFRPPRLPRPRPRPKEYPRP", "shrunken log2 fold change": -0.468}
{"sequence": "RRIRVRPPRLPRPRPRPYESPRP", "shrunken log2 fold change": -0.0252}
{"sequence": "RRIRWRPPRLPRPRPRPPGMPRP", "shrunken log2 fold change": 0.759}
{"sequence": "RRIRFRPPRLPRPRPRPFGNPRP", "shrunken log2 fold change": 0.0348}
